{
  "source": "paper doi:10.1101/325712",
  "about": "(bioRxiv, 2018)",
  "binders": {"B1": {"name": "HspB1 peptide residues 76-88 phosphorylated at Ser82 (peptide)", "peptide": "ALSRQL[pS]SGVSEI"}, "B2": {"name": "HspB1 peptide residues 80-88, unphosphorylated (peptide)", "peptide": "Ac-QLSSGVSEI"}, "B3": {"name": "HspB1 peptide residues 80-88, phosphorylated (peptide)", "peptide": "Ac-QLSSGVSEI", "modifications": "not fully specified"}},
  "key": {"[1]": {"target": "human HspB1 ACD (residues 84-170) (human, UniProt P04792 84-170)", "sequence (P04792 84-170)": "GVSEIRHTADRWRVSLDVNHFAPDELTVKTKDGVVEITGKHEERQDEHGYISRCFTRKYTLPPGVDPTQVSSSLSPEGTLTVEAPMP", "assay": "crystal structure"}, "[2]": {"target": "T1, human FLNC domains 18-21 (residues 1943-2408), EEF-tagged (human, UniProt Q14315 1943-2408)", "T1 sequence": "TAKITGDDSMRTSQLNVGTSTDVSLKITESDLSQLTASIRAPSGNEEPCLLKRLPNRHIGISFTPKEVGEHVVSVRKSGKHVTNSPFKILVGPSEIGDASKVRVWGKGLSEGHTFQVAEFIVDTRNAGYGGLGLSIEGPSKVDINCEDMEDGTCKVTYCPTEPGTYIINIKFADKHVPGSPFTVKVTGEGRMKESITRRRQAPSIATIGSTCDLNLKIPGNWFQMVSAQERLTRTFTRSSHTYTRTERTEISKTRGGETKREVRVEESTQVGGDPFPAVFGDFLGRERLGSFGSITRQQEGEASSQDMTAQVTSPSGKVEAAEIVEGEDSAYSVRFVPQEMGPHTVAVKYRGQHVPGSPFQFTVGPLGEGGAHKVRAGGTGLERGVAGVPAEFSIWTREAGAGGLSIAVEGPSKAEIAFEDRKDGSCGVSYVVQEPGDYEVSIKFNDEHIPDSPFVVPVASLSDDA", "assay": "native MS"}},
  "note": "Square brackets hold non-standard residues; d marks the D form. Ends that are not written are not given here. pS = N[C@@H](COP(=O)(O)O)C(=O)O",
  "data": [
    {"binder": "B1", "values": [
      {"measurement": "binding result", "setting": "[1]", "value": "binds"}
    ]},
    {"binder": "B2", "values": [
      {"measurement": "Kd", "setting": "[2]", "value": "130 ± 17", "unit": "µM"}
    ]},
    {"binder": "B3", "values": [
      {"measurement": "Kd", "setting": "[2]", "value": "110 ± 10", "unit": "µM"}
    ]}
  ]
}
